Test results taken from US8076087B2, “Galectin sequences and compositions and methods utilizing same for treating or diagnosing arthritis and other chronic inflammatory diseases” (Medical Research Fund of Tel Aviv Souraskv Medical Center, priority 2002, dated 2011).

Tests used:
[1] = test system: IL-1β; test: IL-1β levels in media of LPS-supplemented human synovial tissue / cell cultures, sandwich enzyme immunoassay; type: cell-based; details: LPS 3 μg/ml, 50-2000 ng/ml, 48 hours
Method: (§1) Specimen Selection and Culture Conditions: Synovial tissues were obtained from patients undergoing total knee or hip replacement for osteoarthritis (OA). Within 2 hours of removal, synovial tissues were cut into small pieces, of a few millimeters in diameter. Synovial fibroblasts were cultured in 2 ml RPMI 1640 supplemented with 2 mM L-glutamine, 100 U/ml penicillin and 100 μg/ml streptomycin sulphate (Biological Industries).
(§2) Inflammatory cells and PBLs derived from joints of rheumatoid arthritic (RA) patients were cultured individually [RPMI-1640 (Sigma, Israel)]. The murine fibroblast line, NIH 3T3, was used as a control. The recombinant galectin-8 peptide (r-galectin-8) was added to the culture medium of the synovial fibroblasts at a concentration of 0.125 μM, 0.25 μM, 0.5 μM and 1 μM) together with lipopolysaccharide (LPS, 3 μg/ml). The recombinant galectin-8 peptide variants (r-galectin-8 variant 1 and r-galectin-8 variant 2) were added to all the culture mediums in the following concentrations: 50 ng/ml, 125 ng/ml, 250 ng/ml, 500 ng/ml, 750 ng/ml, 1 μg/ml and 2 μg/ml together with lipopolysaccharide (LPS, 3 μg/ml). Following 48 hours of incubation (37° C., 5% CO2), the measurement of IL-1β, TNF-α and IL-1ra production was performed in supernatants by quantitative sandwich enzyme immunoassay technique (R&D Systems, Inc., USA). Detection limits were 1 pg/ml to 14 pg/ml. IL-1ra production was tested with and without the addition of lipopolysaccharide (LPS, 3 μg/ml) to the culture media.

[2] = test system: TNFα; test: TNFα levels in media of LPS-supplemented human synovial tissue / cell cultures, sandwich enzyme immunoassay; type: cell-based; details: LPS 3 μg/ml, 50-2000 ng/ml, 48 hours
Method: as §1, §2

[3] = test system: IL-1ra; test: IL-1ra levels in media of NIH 3T3 fibroblasts (negative control cells); type: cell-based, murine; details: LPS 3 μg/ml, 50-2000 ng/ml, 48 hours
Method: as §2

[4] = test system: PBLs of arthritic patients; test: Apoptosis induction, annexin V/PI flow cytometry, PBLs; type: cell-based, human; details: lowest concentration 50 ng/ml
Method: The assay was performed by Phosphatidyl Serine Detection Kit (IOP-116F FITC-conjugated, IQ Products, The Netherlands) using the manufacturer instructions. Human fibroblast cells from OA patients, synovial fluid cells and PBLs from RA and other arthritic patients were incubated with increasing concentrations of galectin-8 variants 1 and 2 (50-2000 ng/ml). Specific binding of annexin V was performed by the incubation of cells for 20 minutes on ice in a binding calcium buffer containing a saturating concentration of annexin V-fluorescein isothiocyanate (FITC) and propdium iodide (PI). After incubation, the cells were pelleted, and analyzed in FACS analyzer (Beckton Dickinson, San Jose, Calif.). Annexin V^+/PI^+ cells were defined as necrotic, while annexin V^+/PI^− cells were defined as apoptotic. The percent of the apoptotic cells of the total cells was determined.

[5] = test system: collagen induced arthritis (CIA); test: Collagen-induced arthritis (CIA) in DBA/1 mice, footpad thickness; type: in vivo; details: 100 μg per injection
Source text: Animal treatment: 44 DBA/1 mice were induced with a joint inflammatory disease by two subcutaneous (s.c.) injections into the base of the tail of type II collagen three weeks apart. Joint inflammation, which appears several days after the last collagen injection, causes enhanced marked foot pad swelling, as well as swelling of other joints. The diameter of nonarthritic footpads is 1.5 to 1.7 mm. A footpad diameter of 1.9 to 2.0 mm was arbitrarily set as disease onset. […] Human galectin-8 protein and variants (100 μg per injection) as well as control injections were injected IP at disease onset and then every day for 11 days. The 44 mice were divided into 5 experimental groups as follows: Group 1 (negative control): systemic injection (starting at CIA onset) of PBS or PBS+30% glycerol (storing dilution solution of galectin proteins) (10 mice). Group 2 (positive control): systemic injection (starting at CIA onset) of anti-mouse TNFα mAb (cat. no. AMC-3012, Biosource Int. Inc. USA) adhering to the standard protocol (i.e., 100 μg antibody/mouse every day for 11 days) (6 mice). Group 3 (positive control): systemic injection of human galectin-8 protein according to the standard protocol (10 mice). Group 4: systemic injection of 100 μg per dose of human galectin-8 variant 1 according to the standard protocol (10 mice). Group 5: systemic injection of 100 μg per dose of human galectin-8 variant 2 (8 mice). The effect on footpad thickness was determined in a “blind” fashion, recording the electronic microcaliper measurements of the thickness of the joints, by picking the animals at random and recording their ears' signs following measurement. The mice were bled prior to disease induction, following disease onset and upon termination of the experiment (approximately day 11). The sera were stored and later analyzed for the presence of rheumatoid factor (RF) and cytokines. The mice were killed upon termination of the experiment and the joints removed from some of the animals for histopathological examination.

[6] = test system: collagen induced arthritis (CIA); test: Histopathological examination of rear footpad joints of CIA mice; type: in vivo, DBA/1 mice; details: compared with joints of arthritic mice treated with PBS or PBS+30% glycerol
Source text: Histopathological examination: The rear footpad joints of 5 arthritic mice that received PBS or PBS+30% glycerol (group 1, negative control), 2 arthritic mice that received anti-mouse-TNFα mAb (group 2, positive control), 3 arthritic mice that received human galectin-8 protein (group 3, positive control), 3 normal healthy mice and 5 arthritic mice that received human galectin-8 variant 1 (group 4) were sent to an accredited pathological laboratory (Patho-Lab, Kiryat Weitzmann, Rehovot) for histopathological examination.
Quantification of the arthritic changes was made subjectively based on degree of articular destruction and following evaluation of the different parameters often observed in arthritic joints. The definition of the parameters quantitated were: • 1. Cellularity within the joint: Cells present couldn't be identified due to loss of cellular morphology (decal), therefore red blood cells and leukocytes were all graded together. • 2. Presence of fibrin in the joint: Fibrin was present in apparently more acute lesions, but the amount of fibrin was proportionally small. • 3. Cartilage loss: Cartilage surfaces were evaluated in the section, slight changes of irregularity of the surface were noted. • 4. […] Synovial cell loss: Identification of synovial cells was difficult due to poor cellular morphology, but in general synovial surfaces were evaluated for integrity. • 6. […]

[7] = PBLs from RA patients, listed as galectin-8 var. 1
[8] = human fibroblasts from OA patients
[9] = human fibroblasts from OA patients, listed as galectin-8 var. 1
[10] = synovial fluid cells (SFCs), listed as galectin-8 var. 1

B1: galectin-8 variant 1: recombinant galectin-8 variant 1 polypeptide, SEQ ID NO: 6, isoform found in synovial fluid cells of arthritic patients (protein)
chain: MMLSLNNLQNIIYNPDLQSTQASSLELTEISRENVPKSGTPQLPSNRGGDISKIAPRTVYTKSKEARQSHFDLHENTTYELCVKSLPFAARLNTPMGPGRTVVVKGEVNANAKSFNVDLLAGKSKDIALHLNPRLNIKAFVRNSFLQESWGEEERNITSFPFSPGMYFEMIIYCDVREFKVAVNGVHSLEYKHRFKELSSIDTLEINGDIHLLEVRSW
IL-1β levels in media ([1]; PBLs from RA patients): significantly and dose-dependently inhibited | IL-1β levels in media [1, 7]: decrease | IL-1β levels in media [1, 8]: significantly and dose-dependently inhibited | IL-1β levels in media [1, 9]: decrease | IL-1β levels in media ([1]; synovial fluid cells (SFCs)): significantly and dose-dependently inhibited | IL-1β levels in media [1, 10]: decrease | TNFα levels in media ([2]; PBLs from RA patients): significantly and dose-dependently inhibited | TNFα levels in media [2, 7]: decrease | TNFα levels in media [2, 8]: significantly and dose-dependently inhibited | TNFα levels in media [2, 9]: decrease | TNFα levels in media ([2]; synovial fluid cells (SFCs)): significantly and dose-dependently inhibited | TNFα levels in media [2, 10]: decrease | IL-1ra levels in media [3]: No effect | IL-1ra levels in media ([3]; listed as galectin-8 var. 1): remain unaffected | maximal apoptotic effect [4]: approximately 100% | CIA manifestations (footpad swelling) ([5]; IP / systemic, from disease onset every day for 11 days): substantially reduced | alleviating the swelling in the footpad, compared with positive controls ([5]; every day for 11 days): at least as effective as anti-TNFα mAb and the human galectin-8 recombinant peptide | recovery of joints (histopathology) [6]: recovered, most of them completely and some at least partly
